Results: article PMC12424427

Target: AGO2 (UniProt Q9UKV8)
Experiment: MST
Conditions: MST: labeled protein 5-150 nM, ligand 1E-10 to 1E-5 M, 5-15 min, buffer and temperature not stated, pull-down: 150 mM NaCl, 50 mM Tris pH 7.4, 1% Triton X-100 …

AGO2, sequence (Q9UKV8 whole entry): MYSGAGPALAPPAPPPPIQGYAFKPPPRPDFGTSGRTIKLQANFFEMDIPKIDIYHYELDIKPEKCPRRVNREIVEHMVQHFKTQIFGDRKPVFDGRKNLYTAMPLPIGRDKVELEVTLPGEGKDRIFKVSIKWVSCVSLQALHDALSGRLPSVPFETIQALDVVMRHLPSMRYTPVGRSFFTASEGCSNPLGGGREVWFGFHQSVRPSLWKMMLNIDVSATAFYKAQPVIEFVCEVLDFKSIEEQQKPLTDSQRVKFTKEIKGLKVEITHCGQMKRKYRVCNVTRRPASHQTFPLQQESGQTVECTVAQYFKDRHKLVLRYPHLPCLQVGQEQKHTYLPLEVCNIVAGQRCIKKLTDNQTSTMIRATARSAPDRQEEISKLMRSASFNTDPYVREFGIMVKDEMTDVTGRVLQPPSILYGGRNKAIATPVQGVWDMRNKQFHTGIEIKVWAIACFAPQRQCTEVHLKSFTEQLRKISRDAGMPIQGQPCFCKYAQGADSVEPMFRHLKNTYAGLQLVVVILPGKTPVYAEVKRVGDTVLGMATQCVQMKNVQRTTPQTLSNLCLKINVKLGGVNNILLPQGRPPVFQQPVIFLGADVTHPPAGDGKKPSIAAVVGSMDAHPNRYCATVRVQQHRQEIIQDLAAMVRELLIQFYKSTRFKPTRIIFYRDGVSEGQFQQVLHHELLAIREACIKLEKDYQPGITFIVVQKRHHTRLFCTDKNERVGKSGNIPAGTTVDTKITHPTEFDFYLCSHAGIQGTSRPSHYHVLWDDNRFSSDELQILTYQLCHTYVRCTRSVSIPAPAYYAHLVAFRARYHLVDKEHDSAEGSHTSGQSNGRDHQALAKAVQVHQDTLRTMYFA

5'ppp-dsRNA
Kd (5'-triphosphate): 2200 nM

3p-hpRNA (5'ppp hairpin RNA)
Kd (no competitor, 5'-triphosphate): 205 nM

5'ppp-dsRNA Control (dsRNA control)
Kd (no 5'-triphosphate): 2200 nM
